Laboratory results taken from the supplement of paper PMC10567573.

B1: PPFIA4 (parent)
chain: VMTLPSDLRKHRRKLLSPVSREEN
B2: ZNF449 (parent)
chain: RIHSGEEPHKCPECGKRFLRSSDL

Variants of: B1
Assay: protein stability index of a GFP-peptide fusion (GPS, HEK-293T) (PSI 1-6); higher = more stable
Settings: c terminus: a fixed tail appended
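Further: lentivirally expressed fusions sorted by FACS into six bins by GFP to DsRed ratio, PSI derived from sequencing read proportions per bin multiplied by bin number.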

| Variant | protein stability index |
| --- | --- |
| S17W | 2.9 |
| S17T | 4.23 |
| S17C | 3.65 |
| S17L | 3.73 |
| S17M | 3.48 |
| S17H | 3.93 |
| S17E | 3.86 |
| S17G | 3.9 |
| S17R | 3.77 |
| S17N | 3.88 |
| S17V | 3.53 |
| S17F | 4.01 |
| S17Q | 4.08 |
| S17K | 3.66 |
| S17P | 4.17 |
| S17D | 4.29 |
| S17A | 4.24 |
| S17I | 3.45 |
| S17Y | 4.07 |
| L15E | 4.22 |
| L15C | 3.55 |
| L15Q | 3.83 |
| L15V | 3.81 |
| L15W | 3.5 |

| Variant | protein stability index |
| --- | --- |
| L15D | 4.63 |
| L15K | 3.94 |
| L15S | 4.94 |
| L15H | 4.02 |
| L15R | 3.92 |
| L15T | 3.9 |
| L15I | 3.9 |
| L15N | 4.38 |
| L15M | 4.08 |
| L15Y | 4.06 |
| L15A | 4.08 |
| L15G | 4.39 |
| L15P | 4.11 |
| L15F | 4.27 |
| E22W | 2.23 |
| E22T | 3.22 |
| E22C | 2.8 |
| E22N | 3.27 |
| E22F | 2.44 |
| E22Q | 3.19 |
| E22Y | 2.93 |
| E22I | 3.02 |
| E22D | 3.5 |
| E22A | 3.12 |

| Variant | protein stability index |
| --- | --- |
| E22G | 3.16 |
| E22L | 2.26 |
| E22S | 3.68 |
| E22P | 2.85 |
| E22R | 3.66 |
| E22V | 3.86 |
| E22K | 3.67 |
| E22M | 3.25 |
| E22H | 3.52 |
| N24R | 3.73 |
| N24M | 3.07 |
| N24P | 3.45 |
| N24I | 3.34 |
| N24Q | 4.05 |
| N24C | 3.33 |
| N24L | 2.94 |
| N24K | 4.04 |
| N24V | 3.27 |
| N24E | 4.31 |
| N24W | 2.99 |
| N24Y | 3.02 |
| N24F | 2.44 |
| N24A | 4.02 |
| N24T | 3.73 |

| Variant | protein stability index |
| --- | --- |
| N24S | 3.91 |
| N24H | 3.88 |
| N24D | 4.33 |
| N24G | 3.23 |
| L16K | 4.03 |
| L16G | 4.43 |
| L16V | 3.84 |
| L16F | 3.29 |
| L16W | 3.09 |
| L16S | 4.43 |
| L16E | 4.29 |
| L16M | 4.07 |
| L16N | 3.87 |
| L16D | 4.08 |
| L16I | 3.41 |
| L16Y | 3.85 |
| L16A | 4.34 |
| L16C | 4.37 |
| L16H | 3.89 |
| L16Q | 3.75 |
| L16T | 4.31 |
| L16P | 4.12 |
| L16R | 3.99 |
| P18E | 4.62 |

| Variant | protein stability index |
| --- | --- |
| P18Q | 2.92 |
| P18I | 3.33 |
| P18D | 4.7 |
| P18L | 3.44 |
| P18Y | 3.42 |
| P18T | 4.31 |
| P18W | 2.47 |
| P18G | 4.12 |
| P18F | 2.83 |
| P18H | 3.52 |
| P18S | 4.07 |
| P18V | 4.09 |
| P18K | 4.16 |
| P18C | 3.51 |
| P18M | 3.83 |
| P18A | 4.42 |
| P18R | 3.08 |
| P18N | 3.72 |
| R21I | 3.9 |
| R21T | 4.12 |
| R21K | 4.44 |
| R21Q | 4.36 |
| R21W | 3.32 |
| R21G | 4 |

| Variant | protein stability index |
| --- | --- |
| R21L | 3.84 |
| R21V | 3.91 |
| R21S | 4.29 |
| R21Y | 3.34 |
| R21D | 4.16 |
| R21P | 3.91 |
| R21M | 4.09 |
| R21E | 4.47 |
| R21A | 4.18 |
| R21C | 4.06 |
| R21H | 4.17 |
| R21N | 3.85 |
| R21F | 3.54 |
| K14H | 3.81 |
| K14M | 3.65 |
| K14D | 4.28 |
| K14E | 4.07 |
| K14P | 4.01 |
| K14I | 3.1 |
| K14F | 3.54 |
| K14Y | 3.1 |
| K14N | 3.9 |
| K14S | 3.79 |
| K14T | 4.01 |

| Variant | protein stability index |
| --- | --- |
| K14Q | 3.94 |
| K14W | 2.43 |
| K14G | 4.33 |
| K14C | 2.98 |
| K14V | 3.13 |
| K14L | 3.48 |
| K14R | 3.32 |
| V19M | 2.98 |
| V19L | 3.43 |
| V19D | 4.57 |
| V19H | 4.11 |
| V19N | 3.91 |
| V19R | 3.69 |
| V19I | 3.8 |
| V19Y | 2.94 |
| V19T | 4.18 |
| V19W | 2.52 |
| V19C | 3.17 |
| V19Q | 4.31 |
| V19G | 4.31 |
| V19K | 3.67 |
| V19A | 4.06 |
| V19P | 4.53 |
| V19S | 4.21 |

| Variant | protein stability index |
| --- | --- |
| V19E | 4.21 |
| V19F | 2.85 |
| S20L | 3.44 |
| S20K | 3.92 |
| S20Q | 4.17 |
| S20I | 3.84 |
| S20D | 4.01 |
| S20N | 3.91 |
| S20R | 3.84 |
| S20M | 3.82 |
| S20E | 4.26 |
| S20H | 3.18 |
| S20A | 3.98 |
| S20V | 3.23 |
| S20Y | 2.98 |
| S20C | 2.69 |
| S20G | 4.22 |
| S20T | 3.75 |
| S20W | 2.63 |
| S20F | 2.54 |
| S20P | 3.67 |
| E23C | 2.88 |
| E23F | 2.59 |
| E23K | 3.72 |

| Variant | protein stability index |
| --- | --- |
| E23A | 3.04 |
| E23G | 2.94 |
| E23M | 3.29 |
| E23Y | 2.96 |
| E23L | 3.4 |
| E23N | 3.14 |
| E23Q | 2.96 |
| E23H | 3.41 |
| E23R | 3.06 |
| E23S | 3.93 |
| E23W | 2.44 |
| E23D | 3.52 |
| E23I | 3.15 |
| E23V | 3.1 |
| E23P | 3.5 |
| E23T | 3.04 |

Variants of: B2
Assay: as above
Settings: c terminus: a fixed tail appended

| Variant | protein stability index |
| --- | --- |
| R1E | 4.41 |
| R1H | 4.07 |
| R1F | 1.38 |
| R1C | 5.29 |
| R1K | 3.6 |
| R1V | 3.05 |
| R1S | 3.86 |
| R1Y | 1.9 |
| R1A | 3.75 |
| R1M | 3.4 |
| R1P | 4.04 |
| R1I | 2.38 |
| R1D | 4.13 |
| R1T | 3.37 |
| R1W | 2.28 |
| R1G | 3.74 |
| R1Q | 4.11 |
| R1L | 2.92 |
| R1N | 3.72 |
| S4W | 2.5 |
| S4F | 2.3 |
| S4P | 3.16 |
| S4V | 2.44 |
| S4M | 2.55 |
| S4K | 3.19 |
| S4A | 3.34 |

| Variant | protein stability index |
| --- | --- |
| S4T | 3.53 |
| S4E | 3.7 |
| S4D | 3.56 |
| S4I | 3.07 |
| S4L | 3.19 |
| S4Q | 4.12 |
| S4G | 3.06 |
| S4R | 2.54 |
| S4H | 3.18 |
| S4N | 4 |
| S4Y | 2.84 |
| E6V | 2.28 |
| E6P | 3.69 |
| E6F | 2.95 |
| E6A | 3.24 |
| E6W | 2.08 |
| E6Y | 2.27 |
| E6K | 2.88 |
| E6H | 2.79 |
| E6G | 3.23 |
| E6M | 2.57 |
| E6I | 3.09 |
| E6Q | 3.1 |
| E6S | 1.79 |
| E6N | 3.08 |
| E6D | 3.25 |

| Variant | protein stability index |
| --- | --- |
| E6L | 2.92 |
| E6R | 3.24 |
| E6T | 2.71 |
| H3L | 3.69 |
| H3K | 2.7 |
| H3Q | 4.33 |
| H3R | 3.02 |
| H3A | 3.48 |
| H3V | 3.34 |
| H3G | 2.72 |
| H3S | 3.74 |
| H3C | 3.76 |
| H3N | 3.55 |
| H3D | 3.85 |
| H3P | 3.69 |
| H3T | 3.81 |
| H3I | 3.25 |
| H3E | 3.48 |
| H3M | 3.05 |
| H3F | 2.63 |
| H3Y | 3.32 |
| G5A | 3.79 |
| G5T | 4.24 |
| G5K | 3.41 |
| G5S | 4.04 |
| G5E | 3.62 |

| Variant | protein stability index |
| --- | --- |
| G5N | 3.44 |
| G5Y | 3.56 |
| G5D | 3.74 |
| G5Q | 3.82 |
| G5R | 3.2 |
| G5P | 2.85 |
| G5H | 4.07 |
| G5I | 3.34 |
| G5M | 3.75 |
| G5F | 3.22 |
| G5V | 3.07 |
| G5W | 3.63 |
| G5L | 3.68 |
| E7N | 2.51 |
| E7G | 2.81 |
| E7C | 4.79 |
| E7Q | 3.26 |
| E7I | 2.68 |
| E7V | 2.96 |
| E7H | 3.45 |
| E7K | 2.46 |
| E7F | 2.98 |
| E7P | 2.95 |
| E7T | 3.04 |
| E7L | 2.98 |
| E7R | 1.89 |

| Variant | protein stability index |
| --- | --- |
| E7D | 2.82 |
| E7A | 2.71 |
| E7M | 3.22 |
| I2F | 3.1 |
| I2P | 3.57 |
| I2D | 4.06 |
| I2A | 3.42 |
| I2K | 3.43 |
| I2E | 3.5 |
| I2C | 5.05 |
| I2T | 4.76 |
| I2M | 3.48 |
| I2Q | 3.91 |
| I2H | 3.46 |
| I2N | 4.19 |
| I2S | 3.18 |
| I2L | 3.77 |
| I2R | 3.7 |
| I2V | 3.98 |
| I2Y | 3.79 |
| I2G | 2.78 |
| I2W | 3.9 |
